Legend:
人BCMA (B细胞成熟抗原) = target: T1, 人BCMA (B细胞成熟抗原) (human, UniProt Q02223 1-184); assay: FACS titration (400 nM to 0.025 nM) on H929 cells, mean fluorescence, fitted in GraphPad Prism 7
T1 construct: whole, on cells; Endogenous BCMA on H929 cells; also called B-cell maturation antigen; H929细胞表面BCMA蛋白
T1 sequence (looked up): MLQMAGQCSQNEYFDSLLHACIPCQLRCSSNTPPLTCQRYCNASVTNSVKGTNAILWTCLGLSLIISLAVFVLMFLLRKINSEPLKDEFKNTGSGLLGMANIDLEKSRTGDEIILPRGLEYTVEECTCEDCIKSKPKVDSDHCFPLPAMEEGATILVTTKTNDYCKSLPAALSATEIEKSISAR

人CD3 = target: T2, 人CD3 (human, UniProt P07766 23-207); assay: FACS titration (400 nM to 0.025 nM) on Jurkat cells, mean fluorescence, fitted in GraphPad Prism 7
T2 construct: whole, on cells; also called Jurkat细胞表面CD3蛋白
T2 sequence (P07766 23-207): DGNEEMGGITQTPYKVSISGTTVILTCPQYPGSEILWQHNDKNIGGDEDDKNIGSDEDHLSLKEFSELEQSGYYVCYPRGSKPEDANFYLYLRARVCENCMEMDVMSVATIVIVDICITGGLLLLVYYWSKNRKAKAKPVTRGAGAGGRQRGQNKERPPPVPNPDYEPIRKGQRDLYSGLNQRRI

B1: 四价双特异性抗体Tandab(CD3/BCMA) (bispecific antibody)
chain: DADIELTQSPAIMSASPGEKVTMTCSASSSVSYMNWYQQKSGTSPKRWIYDTSKLASGVPARFSGSGSGTSYSLTISGMEAEDAATYYCQQWSSNPFTFGCGTKLELKRGGGGSQVQLQQSGAEVVRPGTSVKVSCKASGYAFTNYLIEWVKQRPGQGPEWIGVITPGRGDTKYNAKFAGKATLTADKSSSTAYMQLSSLTFDDSAVYFCARGTTAWFPYWGQGTLVTVSAGGGGSGGGGSGGGGSDIVLTQSPASLTVSLGQRATISCRASKSVSTSGYSYMHWYQQKPRQPPKLLIYLASNLESGVPARFSGSGSGTDFTLNIHPVEEEDAATYYCQHSRDLPYTFGGGTKLEIKRAGGGGSQVQLQQSGAELARPGASVKMSCKASGYTFTRYTMHWVKQRPGQCLEWIGYINPSRGYTNYNQKFKDKATLTTDKSSSTAYMELTRLTSEDSAVYYCARYYDDHYSLDYWGQGTTVTVSSHHHHHH
notes: Tetravalent tandem diabody made from anti-BCMA mAb 69G8 and anti-CD3 mAb HIT3a, expressed in ExpiCHO-S cells and purified on a nickel column; detected with an anti-His secondary antibody, so it carries a His tag
Kd (人BCMA (B细胞成熟抗原)): 1.96 nM | Kd (人CD3): 1.96 nM
